Measurements from the Immune Epitope Database (IEDB).

Tests used:
[1] = molecular target: HLA-A*02:06; assay: IEDB peptide-MHC binding, purified MHC/competitive/radioactivity; filed as Kd, often an IC50 or EC50 that approximates it; ≥ and ≤ were set here for values at or beyond the usual limits of such assays
[2] = molecular target: HLA-A*02:03; assay: as above
[3] = molecular target: HLA-A*02:02; assay: as above
[4] = molecular target: HLA-A*69:01; assay: IEDB peptide-MHC binding, purified MHC/direct/fluorescence; filed as Kd, often an IC50 or EC50 that approximates it; ≥ and ≤ were set here for values at or beyond the usual limits of such assays
[5] = molecular target: HLA-A*02:01; assay: as above
[6] = molecular target: HLA-A*30:02; assay: IEDB peptide-MHC binding, purified MHC/competitive/radioactivity; filed as Kd, often an IC50 or EC50 that approximates it; ≥ and ≤ were set here for values at or beyond the usual limits of such assays
[7] = molecular target: HLA-A*03:01; assay: IEDB peptide-MHC binding, purified MHC/direct/fluorescence; filed as Kd, often an IC50 or EC50 that approximates it; ≥ and ≤ were set here for values at or beyond the usual limits of such assays; conditions: source organism: West Nile virus
[8] = molecular target: HLA-A*11:01; assay: as above
[9] = molecular target: HLA-B*40:01; assay: as above; conditions: source organism: Influenza A virus (A/RI/5-/1957(H2N2))
[10] = molecular target: HLA-B*07:02; assay: as above
[11] = molecular target: HLA-B*53:01; assay: IEDB peptide-MHC binding, purified MHC/competitive/radioactivity; filed as Kd, often an IC50 or EC50 that approximates it; ≥ and ≤ were set here for values at or beyond the usual limits of such assays
[12] = molecular target: HLA-A*02:01; assay: IEDB peptide-MHC binding, purified MHC/competitive/fluorescence; filed as Kd, often an IC50 or EC50 that approximates it; ≥ and ≤ were set here for values at or beyond the usual limits of such assays; conditions: source organism: Variola virus
[13] = molecular target: HLA-B*51:01; assay: IEDB peptide-MHC binding, purified MHC/competitive/radioactivity; filed as Kd, often an IC50 or EC50 that approximates it; ≥ and ≤ were set here for values at or beyond the usual limits of such assays
[14] = molecular target: HLA-A*01:01; assay: IEDB peptide-MHC binding, purified MHC/direct/fluorescence; filed as Kd, often an IC50 or EC50 that approximates it; ≥ and ≤ were set here for values at or beyond the usual limits of such assays; conditions: source organism: Homo sapiens
[15] = source organism: Mammarenavirus whitewaterense
[16] = source organism: Orthomarburgvirus marburgense
[17] = source organism: Vaccinia virus WR
[18] = source organism: Dengue virus 4 Philippines/H241/1956
[19] = source organism: SARS coronavirus Tor2
[20] = source organism: Human immunodeficiency virus 1
[21] = source organism: Dengue virus 1 Brazil/97-11/1997
[22] = source organism: Mammarenavirus brazilense
[23] = source organism: Mammarenavirus juninense
[24] = source organism: Campylobacter jejuni RM1221

Sequence: FSAVISGSV
- Kd [1, 15]: 161 nM
- Kd [2, 15]: 14100 nM
- Kd [3, 15]: 48.2 nM

Sequence: GLYPQLSAI
- Kd [4, 16]: 3.86 µM
- Kd [5, 16]: 123 nM

Sequence: DQLVFNSISA
- Kd [1, 17]: 759 nM
- Kd [2, 17]: 289 nM
- Kd [3, 17]: 206 nM

Sequence: LISILMIFI
- Kd [1, 17]: 7040 nM
- Kd [2, 17]: ≥ 5000 nM
- Kd [3, 17]: 2370 nM

Sequence: QNKEGDQYIY
- Kd ([6]; source organism: Dengue virus 1 Nauru/West Pac/1974): 1350 nM

Sequence: RFLGEDGCWY
- Kd [6, 18]: 26.3 nM

Sequence: GVNKQTAMK
- Kd [7]: 600 nM
- Kd ([8]; source organism: West Nile virus): 0.0203 µM

Sequence: EVLMSPCRM
- Kd [1, 17]: 11800 nM
- Kd [2, 17]: 651 nM
- Kd [3, 17]: 6830 nM

Sequence: LEKTHNGKL
- Kd [9]: 124 nM

Sequence: TTELNIVDEI
- Kd [1, 17]: ≥ 21400 nM
- Kd [2, 17]: ≥ 70400 nM
- Kd [3, 17]: ≥ 38700 nM

Sequence: LISSDGARVI
- Kd [1, 17]: ≥ 35000 nM
- Kd [2, 17]: 1150 nM
- Kd [3, 17]: 7180 nM

Sequence: IAGGVCYYLL
- Kd [1, 17]: 656 nM
- Kd [2, 17]: 14600 nM
- Kd [3, 17]: 4580 nM

Sequence: FLAFLLFLVL
- Kd [1, 19]: 2000 nM
- Kd [2, 19]: 245 nM
- Kd [3, 19]: 13.2 nM

Sequence: IISTDQDTM
- Kd [1, 17]: 2360 nM
- Kd [2, 17]: ≥ 33200 nM
- Kd [3, 17]: 4300 nM

Sequence: LINLVQYRIL
- Kd [1, 17]: 15900 nM
- Kd [2, 17]: 2250 nM
- Kd [3, 17]: 2120 nM

Sequence: ATPQDLNTM
- Kd [10, 20]: 11200 nM
- Kd [5, 20]: ≥ 28800 nM

Sequence: ALVCYIVMPV
- Kd [1, 19]: 2.92 nM
- Kd [2, 19]: 4.4 nM
- Kd [3, 19]: 1.2 nM

Sequence: FLTNKLLLFA
- Kd [1, 19]: 7.47 nM
- Kd [2, 19]: 1.41 nM
- Kd [3, 19]: 0.417 nM

Sequence: ELAYYNSCML
- Kd [1, 17]: 3570 nM
- Kd [2, 17]: 151 nM
- Kd [3, 17]: 1870 nM

Sequence: HLENDKIEDL
- Kd [1, 17]: 10600 nM
- Kd [2, 17]: 414 nM
- Kd [3, 17]: 526 nM

Sequence: DMICCDSRIV
- Kd [1, 17]: 18900 nM
- Kd [2, 17]: 6080 nM
- Kd [3, 17]: 11300 nM

Sequence: RNQNKEGDQY
- Kd [6, 21]: 120 nM

Sequence: VPGLPGTVL
- Kd ([10]; source organism: SARS-CoV1): 91.5 nM
- Kd ([8]; source organism: SARS-CoV1): 4.55 µM

Sequence: YTTMFGGVSW
- Kd [11, 18]: 119 nM

Sequence: KLTFLDVEV
- Kd [12]: 10.1 nM

Sequence: YLSKEDRIIT
- Kd [1, 17]: ≥ 49000 nM
- Kd [2, 17]: 5570 nM
- Kd [3, 17]: 1300 nM

Sequence: FVNFVKDMI
- Kd [1, 17]: 229 nM
- Kd [2, 17]: 124 nM
- Kd [3, 17]: 55.2 nM

Sequence: GIIITVGML
- Kd [1, 17]: 18400 nM
- Kd [2, 17]: 349 nM
- Kd [3, 17]: 8670 nM

Sequence: KAMHDKKIDI
- Kd [1, 17]: ≥ 26400 nM
- Kd [2, 17]: ≥ 46200 nM
- Kd [3, 17]: ≥ 70000 nM

Sequence: WAYHGSYEV
- Kd [1, 21]: 24.5 nM
- Kd [13, 21]: 0.0111 µM

Sequence: FVEGLSGATW
- Kd [11, 21]: 14.4 nM

Sequence: AARHKHQVM
- Kd ([10]; source organism: Danio rerio): 64.8 nM

Sequence: TLFGRGVIDT
- Kd [1, 17]: 3310 nM
- Kd [2, 17]: 95.6 nM
- Kd [3, 17]: 199 nM

Sequence: LPEEQDQNYV
- Kd ([13]; source organism: Dengue virus 3 Martinique/1243/1999): 11.9 µM

Sequence: HSLPRCWLV
- Kd [1, 22]: 322 nM
- Kd [2, 22]: 146 nM
- Kd [3, 22]: 654 nM

Sequence: MAFDISVNA
- Kd [1, 17]: 13.2 nM
- Kd [2, 17]: 15.1 nM
- Kd [3, 17]: 191 nM

Sequence: IINSVSIILA
- Kd [1, 17]: 957 nM
- Kd [2, 17]: 890 nM
- Kd [3, 17]: 719 nM

Sequence: YIILFILFFA
- Kd [1, 17]: 1050 nM
- Kd [2, 17]: 674 nM
- Kd [3, 17]: 263 nM

Sequence: LNIALVAVSL
- Kd [1, 23]: 13100 nM
- Kd [2, 23]: 12400 nM
- Kd [3, 23]: 179 nM

Sequence: NIKISLNEIL
- Kd [1, 17]: 557 nM
- Kd [2, 17]: 1390 nM
- Kd [3, 17]: 705 nM

Sequence: DSDGSFFLY
- Kd [14]: 25 nM
- Kd ([4]; source organism: Homo sapiens): ≥ 25.1 µM
- Kd ([8]; source organism: Homo sapiens): ≥ 20.6 µM

Sequence: GIYHDICEI
- Kd [4, 24]: ≥ 20 µM
- Kd [5, 24]: 162 nM

Sequence: DLNIFMTLV
- Kd [1, 17]: 2190 nM
- Kd [2, 17]: 556 nM
- Kd [3, 17]: 1910 nM

Sequence: FGCKPLTMFL
- Kd [13, 21]: ≥ 35.1 µM

Sequence: IASGQRCHFI
- Kd [1, 17]: 256 nM
- Kd [2, 17]: 8320 nM
- Kd [3, 17]: 526 nM

Sequence: WLGAAITLVV
- Kd [1, 17]: 1840 nM
- Kd [2, 17]: 78.4 nM
- Kd [3, 17]: 19.7 nM
